The assay concerns the target PD-L1 on PD-L1 expressing cells (IFNg-stimulated THP-1 cells; MDA-MB-231 cells) (UniProt Q9NZQ7). Kind of assay: FACS, MDA-MB-231 cells, 1 µg/ml, other secondary antibody.

This passage reports MFI results from patent US20180312565A1.

PD-L1 on PD-L1 expressing cells (IFNg-stimulated THP-1 cells; MDA-MB-231 cells), sequence (Q9NZQ7 19-290 limits assumed): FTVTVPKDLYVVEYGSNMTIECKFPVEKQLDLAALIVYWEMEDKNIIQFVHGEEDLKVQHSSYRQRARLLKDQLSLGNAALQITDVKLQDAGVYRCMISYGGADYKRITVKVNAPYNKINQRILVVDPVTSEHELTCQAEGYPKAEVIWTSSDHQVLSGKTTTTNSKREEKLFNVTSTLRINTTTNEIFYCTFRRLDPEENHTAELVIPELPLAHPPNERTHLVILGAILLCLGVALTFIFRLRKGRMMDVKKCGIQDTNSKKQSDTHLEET

In the case of “mouse anti-PD-L1 antibody (R&D Systems, cat. no. MAB1561)”, the MFI was 610.
